Data taken from publication PMC3976300.

What was measured:
Assay in all cases: intrinsic fluorescence quenching
[1] = tested on: Alr0088 (Anabaena sp. PCC7120); settings: Fluorescence: 20 mM Tris-HCl pH 8, 1 mM EDTA, 20 or 100 mM NaCl, room temperature, EMSA: 20 mM Tris-HCl pH 8, 1 mM MgCl2, 100 mM KCl, 8 mM DTT, 4% sucrose …
[2] = tested on: All4779 (Anabaena sp. PCC7120); settings: Fluorescence: 20 mM Tris-HCl pH 8, 1 mM EDTA, 20 or 100 mM NaCl, room temperature, EMSA: 20 mM Tris-HCl pH 8, 1 mM MgCl2, 100 mM KCl, 8 mM DTT, 4% sucrose …
[3] = tested on: EcoSSB (Escherichia coli); settings: 20 mM NaCl; Fluorescence: 20 mM Tris-HCl pH 8, 1 mM EDTA, 20 or 100 mM NaCl, room temperature; EMSA: 20 mM Tris-HCl pH 8, 1 mM MgCl2, 100 mM KCl, 8 mM DTT, 4% sucrose …
[4] = 20 mM NaCl, reciprocal of poly(dT) concentration at 50% fluorescence

Substance | binding signal ([1]; high NaCl) [% quenching] | binding signal ([2]; high NaCl) [% quenching] | Ka [3] [M⁻¹] | Ka [1, 4] [M⁻¹] | Ka [2, 4] [M⁻¹]
M13 ssDNA | 40 | 18 | – | – | –
poly(dT) | – | – | 6.76e+07 | 2.56e+06 | 5.13e+07
